Measurements published in PMC3375153, “The Role of Arg13 in Protein Phosphatase M tPphA from Thermosynechococcus elongatus” (Enzyme Research, 2012).
Positions count from the first letter of the chain named. In names and notes the source's numbering stands.

B1: tPphA (Thermosynechococcus vestitus BP-1; R13N) (protein)
chain: MDVAGLTDCGLINKSNQDAFYIDEKHQRFFIVADGMGGHAGGEEASRLAVDHIRQYLETHLEDLQHDPVTLLRQAFLAANHAIVEQQRQNSARADMGTTAVVILLDEKGDRAWCAHVGDSRIYRWRKDQLQQITSDHTWIAQAVQLGSLTIEQARQHPWRHVLSQCLGREDLSQIDIQPIDLEPGDRLLLCSDGLTEELTDDVISIYLSEPNVQKAAAALVDAAKTHGGRDNVTVVVISV
B2: tPphA (Thermosynechococcus vestitus BP-1; R13Q) (protein)
chain: B1 chain with N13Q
B3: tPphA (Thermosynechococcus vestitus BP-1; R13A) (protein)
chain: B1 chain with N13A
B4: tPphA (Thermosynechococcus vestitus BP-1; R13Y) (protein)
chain: B1 chain with N13Y
B5: tPphA (Thermosynechococcus vestitus BP-1; R13G) (protein)
chain: B1 chain with N13G
B6: tPphA (Thermosynechococcus vestitus BP-1; R13C) (protein)
chain: B1 chain with N13C
B7: tPphA (Thermosynechococcus vestitus BP-1; R13P) (protein)
chain: B1 chain with N13P
B8: tPphA (Thermosynechococcus vestitus BP-1) (protein)
chain: B1 chain with N13R
B9: tPphA (Thermosynechococcus vestitus BP-1; R13K) (protein)
chain: B1 chain with N13K
B10: tPphA (Thermosynechococcus vestitus BP-1; R13H) (protein)
chain: B1 chain with N13H
B11: tPphA (Thermosynechococcus vestitus BP-1; R13S) (protein)
chain: B1 chain with N13S

Each protein was assayed on O=[N+]([O-])c1ccc(OP(=O)(O)O)cc1 (assay: chromogenic phosphatase assay, A400). Details: 50 mM Tris-HCl pH 8.3, 50 mM NaCl, 1 mM DTT, 2 mM MnCl2, 30 °C, pNPP 0.1-10 mM.
Type: biochemical, Thermosynechococcus vestitus
Description: chromogenic phosphatase assay, A400 on tPphA

Protein | Km | kcat | kcat/Km
B1 | 4.73 ± 0.53 mM | 0.81 ± 0.04 s⁻¹ | 171 ± 8 M⁻¹ s⁻¹
B2 | 4.06 ± 0.21 mM | 0.5 ± 0.01 s⁻¹ | 123 ± 2 M⁻¹ s⁻¹
B3 | 5.11 ± 0.23 mM | 1.56 ± 0.03 s⁻¹ | 305 ± 6 M⁻¹ s⁻¹
B4 | 4.31 ± 0.28 mM | 0.42 ± 0.01 s⁻¹ | 97 ± 2 M⁻¹ s⁻¹
B5 | 3.58 ± 0.22 mM | 1.17 ± 0.03 s⁻¹ | 327 ± 8 M⁻¹ s⁻¹
B6 | 4.27 ± 0.39 mM | 0.79 ± 0.01 s⁻¹ | 185 ± 2 M⁻¹ s⁻¹
B7 | 4.77 ± 0.17 mM | 1.01 ± 0.02 s⁻¹ | 212 ± 4 M⁻¹ s⁻¹
B8 | 1.06 ± 0.05 mM | 2.25 ± 0.1 s⁻¹ | 2120 ± 94 M⁻¹ s⁻¹
B9 | 1.39 ± 0.10 mM | 1.22 ± 0.03 s⁻¹ | 878 ± 21 M⁻¹ s⁻¹
B10 | 3.30 ± 0.17 mM | 0.64 ± 0.01 s⁻¹ | 194 ± 3 M⁻¹ s⁻¹
B11 | 3.85 ± 0.32 mM | 1.06 ± 0.04 s⁻¹ | 275 ± 10 M⁻¹ s⁻¹
